Test results published in patent publication US20250327050.
Substitutions are numbered along the chain they refer to.

What was measured:
[1] = system: T1, MBP-ZC3H14 full-length S475A mutant
T1 sequence: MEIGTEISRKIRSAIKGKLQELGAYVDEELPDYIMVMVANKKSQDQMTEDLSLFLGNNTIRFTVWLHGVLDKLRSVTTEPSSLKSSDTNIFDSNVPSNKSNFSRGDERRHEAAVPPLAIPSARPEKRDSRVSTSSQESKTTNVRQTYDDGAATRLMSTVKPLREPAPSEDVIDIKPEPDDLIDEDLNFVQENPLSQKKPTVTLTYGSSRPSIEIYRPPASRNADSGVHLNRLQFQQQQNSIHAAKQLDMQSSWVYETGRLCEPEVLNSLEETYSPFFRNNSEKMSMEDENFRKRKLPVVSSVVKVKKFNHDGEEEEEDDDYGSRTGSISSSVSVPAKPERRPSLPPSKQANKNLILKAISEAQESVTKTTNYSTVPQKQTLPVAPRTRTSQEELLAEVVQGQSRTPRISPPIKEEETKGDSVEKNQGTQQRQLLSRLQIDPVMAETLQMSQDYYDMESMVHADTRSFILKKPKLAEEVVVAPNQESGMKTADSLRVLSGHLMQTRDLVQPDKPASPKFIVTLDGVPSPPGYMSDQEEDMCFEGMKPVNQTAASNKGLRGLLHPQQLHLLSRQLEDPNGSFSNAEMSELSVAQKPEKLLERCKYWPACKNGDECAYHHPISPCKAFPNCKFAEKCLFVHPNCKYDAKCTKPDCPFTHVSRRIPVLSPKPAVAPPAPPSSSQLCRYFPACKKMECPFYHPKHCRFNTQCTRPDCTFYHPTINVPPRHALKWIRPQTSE

[2] = system: T2, MBP-ZC3H14 full-length wildtype (residues 1-736)
T2 sequence: T1 sequence with A475S

In the case of “Cdk13 (694-1039) / Cyclin T1 (1-272, T149E) kinase complex”, the anti-thiophosphorylation immunoblot [1] is reported as “CDK13 directly phosphorylates ZC3H14 WT but not ZC3H14 S475A”, the “in vitro kinase assay P32 counts per minute minus time zero” value [1] is reported as “CDK13 directly phosphorylates ZC3H14 WT but not ZC3H14 S475A” and the anti-thiophosphorylation immunoblot [2] is reported as “CDK13 directly phosphorylates ZC3H14 WT but not ZC3H14 S475A”. For the same substance, the “in vitro kinase assay P32 counts per minute minus time zero” value [2] was “CDK13 directly phosphorylates ZC3H14 WT but not ZC3H14 S475A”.
